Data from patent US20110165161A1, “ANTI-EPCAM ANTIBODIES THAT INDUCE APOPTOSIS OF CANCER CELLS AND METHODS USING SAME” (priority 2009, published 2011).

T1: human EpCAM (CHO/EpCAM cells) (Homo sapiens, UniProt P16422)
T1 construct: full-length of human EpCAM (aa 1-314); expressed in transfected cells; host or cells: CHO (Chinese hamster ovary) cells
T1 sequence (P16422 24-314): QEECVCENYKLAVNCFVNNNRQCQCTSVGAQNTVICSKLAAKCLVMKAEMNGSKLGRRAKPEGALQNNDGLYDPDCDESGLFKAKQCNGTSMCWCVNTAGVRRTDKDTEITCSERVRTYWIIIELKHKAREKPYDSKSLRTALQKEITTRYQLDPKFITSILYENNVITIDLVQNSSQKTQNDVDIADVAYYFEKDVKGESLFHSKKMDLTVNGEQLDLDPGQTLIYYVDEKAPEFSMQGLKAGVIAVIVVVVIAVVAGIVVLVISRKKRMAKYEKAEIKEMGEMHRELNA


Experiments:
[1] = test system: Prostate cancer LNCaP cells; experiment: Antibody cytotoxicity assay (Annexin V + PI), LNCaP; assay type: cell-based; settings: for Induction of cell death (in words): 1, 3 and 10 μg/ml, overnight; for Cytotoxic effect (Annexin V + PI staining, dead cells): 17-20 hr
Description: (§1) After a 17-20 hr incubation at 37° C., cells were stained with 0.3 μl of FITC-conjugated Annexin V (Strong Biotech Corp. Cat. No. AVK250) in 50 μl Annexin V binding buffer (Strong Biotech Corp. Cat. No. AVK250) at RT for 20 min. After wash, the cells were then stained with 0.3 μl of propidium iodide in 200 μl Annexin V binding buffer. Annexin V and Propidium Iodide were used as a joint indicator for cell death. The data were acquired with BD FACSCalibur based on an acquisition of 3,000-5,000 cells and analyzed with the Cell Quest software. The combined percentages of the Annexin V+/PI+, Annexin V+/PI− and Annexin V−/PI+populations were considered as dead cells.

[2] = test system: Colorectal cancer DLD-1 cells; experiment: Antibody cytotoxicity assay (Annexin V + PI), DLD-1; assay type: cell-based; settings: for Induction of cell death (in words): 1, 3 and 10 μg/ml, overnight; for Cytotoxic effect (Annexin V + PI staining, dead cells): 17-20 hr
Description: as §1

[3] = test system: Breast cancer T-47D cells; experiment: Antibody cytotoxicity assay (Annexin V + PI), T-47D; assay type: cell-based; settings: for Induction of cell death (in words): 1, 3 and 10 μg/ml, overnight; for Cytotoxic effect (Annexin V + PI staining, dead cells): 17-20 hr
Description: as §1

[4] = target: T1, human EpCAM (CHO/EpCAM cells); experiment: FACS binding of anti-EpCAM antibodies to CHO/EpCAM cells; settings: antibody 0.1 μg/ml; HPS at 300x dilution
Description: The cDNAs encoding full-length of human EpCAM (aa 1-314) were amplified by PCR from the cDNA pool generated from T-47D cells and cloned into the modified pcDNA 3.1/Myc-His(+) A vector (Invitrogen), followed by transfecting into Chinese hamster ovary (CHO) cells at 80-90% confluence in 6-well culture dishes, using Lipofectamine 2000 (Invitrogen, Cat. No. 11668-500). Transfectants were selected in F12/10% FBS medium containing 600 ug/ml Hygromycin B (C.A. IN-10687-010). Transfected cells expressing hEpCAM were identified by flow cytometry with anti-EpCAM antibodies.
1×10^5 CHO/EpCAM or CHO parental cells were seeded in each well of a v-bottomed 96-well plate and incubated with purified anti-EpCAM antibodies or mouse IgG control antibody 9E10 at concentration of 0.1 μg/ml. A 300× dilution of human cell hyper-immune serum (HPS 300×) was used as binding positive control for both cell lines here. After 1 hr incubation at 4° C., cells were washed twice with 200 μl FACS buffer (1×PBS containing 1% FBS), stained with 100 μl of 1 μg/ml goat-anti-mouse IgG-PE (Southern Biotech, Cat. No. 1032-09) in FACS buffer and then incubated at 4° C. for 30 min. Cells were washed thrice with FACS buffer and analyzed by flow cytometry (BD LSR, BD Life Sciences).

[5] = test system: Ovarian cancer NIH:OVCAR-3 cells; experiment: Antibody cytotoxicity assay (Annexin V + PI), NIH:OVCAR-3; assay type: cell-based; settings: for Induction of cell death (in words): 1, 3 and 10 μg/ml, overnight; for Cytotoxic effect (Annexin V + PI staining, dead cells): 17-20 hr
Description: as §1

[6] = test system: COLO 205 colon cancer cells; experiment: Cytotoxicity of anti-EpCAM antibodies in combination with oxaliplatin in COLO 205; assay type: cell-based, human; settings: 24 hr
Description: Oxaliplatin, combined with infusional administration of 2 other chemotherapy drugs, 5-fluorouracil/leucovorin (5-FU/LV), is now considered as one of the as first-line treatments for people with advanced carcinoma of the colon or rectum (André et al. (2004) N Engl J Med 350(23):2343-2351). To test the cytotoxicity of anti-EpCAM antibodies in the presence of oxaliplatin, 1×10^5 COLO 205 cells were seeded to each well of a 96-well plate, and then 0.03, 0.3 and 3 μg/ml of anti-EpCAM or control (9E10) mAbs in combination with oxaliplatin at concentration of 0, 0.01, 0.1, and 1 μg/ml diluted in the medium were added into the cells. After a 24-hr incubation at 37° C., the cells were stained with 0.3 μl of FITC-conjugated Annexin V (Strong Biotech Corp. Cat. No. AVK250) in 50 μl Annexin V binding buffer (Strong Biotech Corp. Cat. No. AVK250) at RT for 20 min. After wash, the cells were then stained with 0.3 μl of propidium iodide in 200 μl Annexin V binding buffer. Annexin V and Propidium Iodide were used as a joint indicator for measuring cell death. The data were acquired with BD FACSCalibur based on an acquisition of 3,000-5,000 cells and analyzed with the Cell Quest software. The combined percentages of the Annexin V+/PI+, Annexin V+/PI− and Annexin V−/PI+populations were considered as dead cells.

[7] = test system: Pharynx cancer FaDu cells; experiment: Antibody cytotoxicity assay (Annexin V + PI), FaDu; assay type: cell-based; settings: for Induction of cell death (in words): 1, 3 and 10 μg/ml, overnight; for Cytotoxic effect (Annexin V + PI staining, dead cells): 17-20 hr
Description: as §1

[8] = test system: Gastric cancer NCI-N87 cells; experiment: Antibody cytotoxicity assay (Annexin V + PI), NCI-N87; assay type: cell-based; settings: for Induction of cell death (in words): 1, 3 and 10 μg/ml, overnight; for Cytotoxic effect (Annexin V + PI staining, dead cells): 17-20 hr
Description: as §1

[9] = mAb 0.03 μg/ml, oxaliplatin 0 μg/ml
[10] = mAb 0.3 μg/ml + oxaliplatin 1 μg/ml
[11] = mAb 0.3 μg/ml, oxaliplatin 0 μg/ml
[12] = mAb 3 μg/ml + oxaliplatin 0.01 μg/ml
[13] = mAb 3 μg/ml + oxaliplatin 1 μg/ml
[14] = mAb 3 μg/ml, oxaliplatin 0 μg/ml

Row | Molecule | Induction of cell death (in words) [1] | Cytotoxic effect (Annexin V + PI staining, dead cells) ([1]; mAb 1.0 μg/ml) [%] | Cytotoxic effect (Annexin V + PI staining, dead cells) ([1]; mAb 3.0 μg/ml) [%] | Cytotoxic effect (Annexin V + PI staining, dead cells) ([1]; mAb 10 μg/ml) [%] | Induction of cell death (in words) [2] | Cytotoxic effect (Annexin V + PI staining, dead cells) ([2]; mAb 1.0 μg/ml) [%] | Cytotoxic effect (Annexin V + PI staining, dead cells) ([2]; mAb 3.0 μg/ml) [%] | Cytotoxic effect (Annexin V + PI staining, dead cells) ([2]; mAb 10 μg/ml) [%] | Induction of cell death (in words) [3] | Cytotoxic effect (Annexin V + PI staining, dead cells) ([3]; mAb 1.0 μg/ml) [%] | Cytotoxic effect (Annexin V + PI staining, dead cells) ([3]; mAb 3.0 μg/ml) [%] | Cytotoxic effect (Annexin V + PI staining, dead cells) ([3]; mAb 10 μg/ml) [%] | Binding (FACS, Mean fluorescence intensity (MFI)) CHO/EpCAM [4] | Induction of cell death (in words) [5] | Cytotoxic effect (Annexin V + PI staining, dead cells) ([5]; mAb 1.0 μg/ml) [%] | Cytotoxic effect (Annexin V + PI staining, dead cells) ([5]; mAb 3.0 μg/ml) [%] | Cytotoxic effect (Annexin V + PI staining, dead cells) ([5]; mAb 10 μg/ml) [%] | % of Annexin V + PI staining (untreated background subtracted) [6, 9] [%] | % of Annexin V + PI staining (untreated background subtracted) [6, 10] [%] | % of Annexin V + PI staining (untreated background subtracted) [6, 11] [%] | further results
1 | 1G10: murine anti-human EpCAM monoclonal antibody (IgG1, K), hybridoma m290-1G10; VH SEQ ID NO:7, VL SEQ ID NO:9 (antibody, listed as Mus musculus, V domains shown) VH: QIQLVQSGPELKKPGETVKISCKASGYTFTNYGMNWVKQAPGKGFKWMGWINTYTGEPTYADDFKGRFAFSLETSASTAYLQINNLQNEDMATYFCARWGYDFDYWGQGTTLTVSS VL: QIVLTQSPAIMSSSPGEKVTMTCSASSSISYMNWYQQKPGTSPKRWIYDTSKLASGVPARFSGSGSGTSYSLTISSMEAEDAATYYCHQRSSYPYTFGGGTKLEIKR | substantial cell death | 42 | 55 | 45 | substantial cell death | 28 | 40 | 60 | substantial cell death | 45 | 58 | 64 | 6178 | substantial cell death | 40 | 50 | 52 | 2 | 10 | 5 | % of Annexin V + PI staining (untreated background subtracted) ([6]; mAb 0.03 μg/ml + oxaliplatin 0.1 μg/ml): 2%; % of Annexin V + PI staining (untreated background subtracted) ([6]; mAb 0.3 μg/ml + oxaliplatin 0.01 μg/ml): 4%; % of Annexin V + PI staining (untreated background subtracted) ([6]; mAb 0.3 μg/ml + oxaliplatin 0.1 μg/ml): 5%; % of Annexin V + PI staining (untreated background subtracted) [6, 12]: 38%; % of Annexin V + PI staining (untreated background subtracted) [6, 13]: 54%; % of Annexin V + PI staining (untreated background subtracted) [6, 14]: 46%; Induction of cell death (in words) [7]: substantial cell death; Cytotoxic effect (Annexin V + PI staining, dead cells) ([7]; mAb 1.0 μg/ml): 40%; Cytotoxic effect (Annexin V + PI staining, dead cells) ([7]; mAb 3.0 μg/ml): 50%; Cytotoxic effect (Annexin V + PI staining, dead cells) ([7]; mAb 10 μg/ml): 51%; Induction of cell death (in words) [8]: substantial cell death; Cytotoxic effect (Annexin V + PI staining, dead cells) ([8]; mAb 1.0 μg/ml): 50%; Cytotoxic effect (Annexin V + PI staining, dead cells) ([8]; mAb 3.0 μg/ml): 60%; Cytotoxic effect (Annexin V + PI staining, dead cells) ([8]; mAb 10 μg/ml): 60%
2 | 1F10: murine anti-human EpCAM monoclonal antibody (IgG1, λ1), hybridoma m338-1F10.3; VH SEQ ID NO:11, VL SEQ ID NO:13 (antibody, listed as Mus musculus, V domains shown) VH: EVKLLESGGGLVQPGGSLKLSCAASGFDFSRYWMSWVRQAPGKGLEWIGEINPDSSTMNYTPSLKDKFIISRDNAKNTLYLQMSKVRSEDTALYYCARGAYAMDYWGQGTSVTVSS VL: QAVVTQESALTTSPGETVTLTCRSSTGAVTTSNNANWVQEKPDHLFTGLIGATNNRAPGVPARFSGSLIGDKAALTITGAQTEDEAIYFCALWYINHWVFGGGTKLTVLG | substantial cell death | 47 | 53 | 48 | substantial cell death | 65 | 65 | 61 | substantial cell death | 51 | 50 | 50 | 5634 | substantial cell death | 53 | 57 | 59 | −1 | 22 | 6 | % of Annexin V + PI staining (untreated background subtracted) ([6]; mAb 0.03 μg/ml + oxaliplatin 0.01 μg/ml): −1%; % of Annexin V + PI staining (untreated background subtracted) ([6]; mAb 0.03 μg/ml + oxaliplatin 1 μg/ml): 5%; % of Annexin V + PI staining (untreated background subtracted) [6, 12]: 52%; % of Annexin V + PI staining (untreated background subtracted) ([6]; mAb 3 μg/ml + oxaliplatin 0.1 μg/ml): 57%; % of Annexin V + PI staining (untreated background subtracted) [6, 13]: 61%; % of Annexin V + PI staining (untreated background subtracted) [6, 14]: 54%; Induction of cell death (in words) [7]: substantial cell death; Cytotoxic effect (Annexin V + PI staining, dead cells) ([7]; mAb 1.0 μg/ml): 44%; Cytotoxic effect (Annexin V + PI staining, dead cells) ([7]; mAb 3.0 μg/ml): 42%; Cytotoxic effect (Annexin V + PI staining, dead cells) ([7]; mAb 10 μg/ml): 45%; Induction of cell death (in words) [8]: substantial cell death; Cytotoxic effect (Annexin V + PI staining, dead cells) ([8]; mAb 1.0 μg/ml): 57%; Cytotoxic effect (Annexin V + PI staining, dead cells) ([8]; mAb 3.0 μg/ml): 57%; Cytotoxic effect (Annexin V + PI staining, dead cells) ([8]; mAb 10 μg/ml): 57%
